Our source for the self-cleavage values is the RNAGym collection of RNA variant scans (doi:10.7554/elife.80360).

B1: Twister Ribozyme (parent)
chain: AACACUGCCAAUGCCGGUCCCAAGCCCGGAUAAAAGUGGAGGGGGCGG

Variants of B1 are the subject of the data set. Put plainly: self-cleavage, relative activity (ratio to wild type); higher = more cleavage; co-transcriptional.
Turning to C25G C27U, the self-cleavage was found to be 0.136.

On to A4U A35G, for which the self-cleavage was 0.0949.

As for G7A G17U, the self-cleavage worked out at 0.103.

In the case of A4U A33U, the self-cleavage was determined as 0.0597.

As for A2C A32G, the self-cleavage worked out at 0.0723.

In the case of A30G G45A, the self-cleavage came to 0.901.

As to C19G A22C, the self-cleavage was 0.219.

With U18C G28C, the self-cleavage is 0.124.

On to U12C C21G, for which the self-cleavage came out at 0.0654.

Turning to G7C U37C, the self-cleavage turned out to be 0.0652.

Regarding C15A U18G, the self-cleavage was determined as 0.089.

Consider C27G U31G, for which the self-cleavage amounted to 0.0669.

Turning to C27A G39C, the self-cleavage is 0.0948.

For the variant C26U A40G, the self-cleavage is 0.0722.

Turning to A23U G39U, the self-cleavage was found to be 0.119.

For the variant G24A C26G, the self-cleavage is 0.0568.

Turning to A33G G39C, the self-cleavage was 0.118.

Turning to C3A G36U, the self-cleavage is 0.0633.

Take U6A G36U: the self-cleavage worked out at 0.202.

In the case of G24U A33G, the self-cleavage came out at 0.104.

Consider A2U A35U, for which the self-cleavage came out at 0.574.

In the case of A32C G41U, the self-cleavage amounted to 0.603.

Consider G7A C9U, for which the self-cleavage amounted to 0.0809.

Take C9A C14A: the self-cleavage came out at 0.61.

Consider G17U C20A, for which the self-cleavage worked out at 0.0851.

For C15U G39A, the self-cleavage is 0.314.

Take G13U G47U: the self-cleavage stood at 0.197.

Turning to U18G A22C, the self-cleavage turned out to be 0.0631.

Consider G42U G45U, for which the self-cleavage amounted to 0.191.

With A34C G43A, the self-cleavage amounted to 0.13.

C5A A35G: the self-cleavage was found to be 0.328.

Take C3G C15A: the self-cleavage worked out at 0.161.

Regarding U18G G42C, the self-cleavage is 0.0775.

On to C5U G17C, for which the self-cleavage came to 0.0605.

In the case of C8A C26U, the self-cleavage turned out to be 0.098.

As for A11C G13C, the self-cleavage was 0.164.

Take C15G G48A: the self-cleavage stood at 0.0877.

U6A G39C: the self-cleavage was 0.183.

For the variant G7U A34G, the self-cleavage came out at 0.0851.

With G7C C15G, the self-cleavage worked out at 0.0181.

As for C9A G42C, the self-cleavage was 0.288.

As to G28U G39A, the self-cleavage was 0.362.

Consider C21G G38A, for which the self-cleavage stood at 0.11.

For A35C G47U, the self-cleavage was found to be 0.932.

In the case of A34G A40U, the self-cleavage is 0.122.

In the case of G7U A30U, the self-cleavage turned out to be 0.0836.

Regarding A4U G29C, the self-cleavage was determined as 0.0635.

As for A4C G44A, the self-cleavage stood at 0.165.

As for A30U A34C, the self-cleavage is 0.17.

For C25G U37C, the self-cleavage was found to be 0.102.

As for A1C G47U, the self-cleavage stood at 0.228.

Regarding A10G U37C, the self-cleavage was 0.946.

Take A23U A40C: the self-cleavage was found to be 0.103.

For G13A G43C, the self-cleavage is 0.167.

Turning to G38A G44C, the self-cleavage worked out at 0.932.

Regarding A22C G45A, the self-cleavage was 0.927.

As to G13A G36C, the self-cleavage was found to be 0.118.

As for C26A G48C, the self-cleavage was determined as 0.434.

As for U12C A34G, the self-cleavage was 0.821.

For the variant C15A G47U, the self-cleavage worked out at 0.332.

As to U18G A35G, the self-cleavage is 0.0984.

U18G A35U: the self-cleavage is 0.0933.

As for C5A C19A, the self-cleavage stood at 0.0624.

As to A22U A23G, the self-cleavage was 0.0873.

Consider C19G A30U, for which the self-cleavage is 0.456.

For the variant C5G, the self-cleavage was found to be 0.85.

Consider C20G A40U, for which the self-cleavage turned out to be 0.0992.

Take A10G C14U: the self-cleavage came to 1.02.

With A35G G42C, the self-cleavage worked out at 0.141.

Regarding A35G G42A, the self-cleavage was determined as 0.115.

With U6G G45C, the self-cleavage turned out to be 0.104.

In the case of A40C G47U, the self-cleavage came to 0.228.

In the case of A2U U37C, the self-cleavage came out at 0.114.

Consider A11G C25A, for which the self-cleavage worked out at 0.13.

Take A10U G47U: the self-cleavage was 1.01.

For the variant A33G G36U, the self-cleavage is 0.256.

C3U G36A: the self-cleavage came to 0.115.

On to C8U G17U, for which the self-cleavage is 0.0946.

In the case of G39C G41U, the self-cleavage is 0.122.

For the variant A4U U37G, the self-cleavage turned out to be 0.624.

As for U12C G45U, the self-cleavage is 0.973.

As to A22U G42A, the self-cleavage came out at 0.126.

Take G29A U31A: the self-cleavage is 1.17.

For the variant A11U C19G, the self-cleavage was determined as 0.616.

For C8U U12C, the self-cleavage turned out to be 0.753.

As for U12G G47U, the self-cleavage stood at 0.703.

C19U G48C: the self-cleavage turned out to be 1.04.

Regarding A11G G47U, the self-cleavage was found to be 0.861.

Consider U31C A34U, for which the self-cleavage stood at 0.739.

For the variant G41U G45U, the self-cleavage turned out to be 0.25.

In the case of C9A G24A, the self-cleavage came out at 0.0968.

Turning to G43A C46U, the self-cleavage is 0.315.

For G13C A33C, the self-cleavage was determined as 0.236.

In the case of C19A U31A, the self-cleavage was 0.219.

Take C19A U31C: the self-cleavage was 0.375.

For C20G A22U, the self-cleavage was found to be 0.122.

Turning to G24U A32G, the self-cleavage is 0.113.

Take G7U G41C: the self-cleavage stood at 0.111.

Take C15A G39A: the self-cleavage is 0.156.

As to A32U A34U, the self-cleavage was 0.89.

On to A22U A33C, for which the self-cleavage amounted to 0.737.

As to G17C G28C, the self-cleavage stood at 0.0667.

With C5U C46G, the self-cleavage amounted to 0.776.

C14A G43U: the self-cleavage was found to be 0.456.

C3G C25U: the self-cleavage amounted to 0.317.

Consider A1U C26A, for which the self-cleavage stood at 0.086.

Take G29U G42C: the self-cleavage was 0.388.

As for G29A A33U, the self-cleavage came to 0.759.

Turning to C21A A23G, the self-cleavage came out at 0.0801.

As to G24A C46G, the self-cleavage worked out at 0.0598.

Consider G43C G44C, for which the self-cleavage turned out to be 0.686.

In the case of G7A G39U, the self-cleavage was 0.15.

U12A G43A: the self-cleavage was 0.298.

Regarding A1C G28U, the self-cleavage was found to be 0.183.

A1C G28C: the self-cleavage stood at 0.155.

Consider G39A G42A, for which the self-cleavage amounted to 0.146.

As for C19G G45U, the self-cleavage is 0.174.

As to G29U G44A, the self-cleavage came out at 0.79.

For C25A A33C, the self-cleavage turned out to be 0.0788.

C3A C8G: the self-cleavage was 0.0742.

Consider U18C U37G, for which the self-cleavage was determined as 0.155.

With A22G G43A, the self-cleavage was 0.0968.

As to G24A A33C, the self-cleavage stood at 0.0756.

Take A2U G41A: the self-cleavage turned out to be 0.111.

A10C A40G: the self-cleavage was 0.181.

As to G24U G36A, the self-cleavage stood at 0.124.

Consider U6G G39U, for which the self-cleavage is 0.105.

With A2C C20A, the self-cleavage was found to be 0.0642.

C27A G41U: the self-cleavage is 0.0984.

On to U31C G45U, for which the self-cleavage was 0.871.

Turning to C14A A35U, the self-cleavage came out at 0.789.

On to C8G A11G, for which the self-cleavage worked out at 0.392.

As to U18G G38A, the self-cleavage was determined as 0.0601.

In the case of C21U G36U, the self-cleavage was 0.0467.

Regarding C25U G41A, the self-cleavage was determined as 0.194.

Turning to G17C U31A, the self-cleavage amounted to 0.138.

Consider U6C U18C, for which the self-cleavage came to 0.0688.

As to A11G G39U, the self-cleavage was 0.224.

Turning to C15U G48U, the self-cleavage is 0.987.

For the variant C3G A33C, the self-cleavage stood at 0.357.

C14U G44C: the self-cleavage was determined as 0.983.

Regarding C3G G36U, the self-cleavage worked out at 0.144.

In the case of G43U C46G, the self-cleavage was 0.409.

With U12A U37G, the self-cleavage is 0.925.

As for C15G G38A, the self-cleavage came out at 0.0635.

As to A32U G47U, the self-cleavage came out at 0.83.

On to A10C A32G, for which the self-cleavage amounted to 0.971.

In the case of G41U G42A, the self-cleavage stood at 0.136.

For G36U G47C, the self-cleavage came to 0.198.

Consider C8G U12C, for which the self-cleavage stood at 0.435.

For A33G A35G, the self-cleavage was found to be 0.865.

With U31G G41U, the self-cleavage came out at 0.763.

As for A2G U6G, the self-cleavage worked out at 0.161.

On to G16U G17C, for which the self-cleavage amounted to 0.105.

Turning to A32U G39U, the self-cleavage worked out at 0.158.

As for G28A U37A, the self-cleavage worked out at 0.465.

For the variant C9A U12C, the self-cleavage was found to be 0.795.

In the case of G17A G38C, the self-cleavage came out at 0.54.

Take A22C G39U: the self-cleavage came out at 0.111.

For the variant C8U C14U, the self-cleavage was 0.791.

Take C5U U37G: the self-cleavage was 0.432.

For the variant C3U G44A, the self-cleavage came out at 0.382.

As to A10U A32G, the self-cleavage is 0.896.

A1G A33C: the self-cleavage is 0.462.

For U6C G39U, the self-cleavage turned out to be 0.114.

As for C15G C26A, the self-cleavage turned out to be 0.0956.

Turning to U6G, the self-cleavage amounted to 0.486.
